The source of these data is patent publication US20220227815A1, “COMPOSITIONS AND METHODS USEFUL IN TREATING BRAIN DISEASES” (University of Kansas, priority 2019, published 2022).

In series [1] the test system is recombinant BDNF and pTrkB. The experiment in a line: Western blot detection of recombinant BDNF and pTrkB in brain. The series is classed as in vivo, SJL/elite mice. The note with it: BDNF 5.71 nmol/kg i.v. with or without ADTC5 10 μmol/kg; 20 min; n=3. How it is done:
Female SJL/elite mice, 5 weeks of age (Charles River) were initially intravenously injected via lateral tail vein with 5.71 nmol/kg BDNF (Peprotech, Rocky Hill, N.J.) with (n=3) or without (n=3) 10 μmol/kg ADTC5. BDNF was allowed to circulate for 20-30 min prior to euthanasia via CO2. Immediately following euthanasia, mice were transcardially perfused with protease inhibitor infused TRIS buffer (pH 7.4). The brains of the mice were extracted and placed in the perfusate buffer on ice. For Western blotting, 100-150 mg of brain tissue was sectioned from the most ventral-posterior portion of the brain and placed in 200-250 μL of solution mixture containing 66% tissue protein extraction reagent (TPER; Thermo Fisher, Waltham, […].) and 33% […] neural protein extraction reagent (NPER; Thermo Fisher) with protease and phosphatase inhibitors (Thermo Fisher). […] These bands were not densiometrically analyzed due to high background signal; however, they are shown for qualitative analysis.
To improve the level of detection of BDNF and pTrkB bands via Western blot, the above process was repeated with an increase in dosages of BDNF. […] These images were not quantified due to the variation in dosing regiments; however, they are provided for qualitative analysis of BDNF brain depositions.
Background: A western blot detects proteins with antibodies after separation by electrophoresis.

Another series has as its system APP/PS1 mice. The experiment in a line: Novel object recognition (NOR) assessment. It is filed as in vivo, transgenic APP/PS1 mice. The note with it: all groups compared. How it is done:
Animals: All animal studies were carried out under the approved animal protocol (AUS-74-11) granted by Institutional Animal Care and Use Committee (IACUC) at The University of Kansas. Animal Care Unit (ACU) personnel and veterinarians were involved in the care of the animals used in this study. Female transgenic APP/PS1 (MMRRC stock #34832-Jax) were obtained from Jackson Laboratory (Bar Harbor, Me.) and housed until at least 6 months of age. Mice received intravenous (i.v.) injections of either BDNF (5.7 nmol/kg)+ADTC5 (10 μmol/kg; n=7), BDNF alone (5.7 nmol/kg; n=6), or vehicle (n=6) every 4 days, for a total of 8 injections. At the end of the study, the mice were euthanized via CO2 inhalation and perfused with PBS immediately followed by 4% formalin fixative solution. The brains were extracted and post-fixed overnight in the perfusion-fixation solution then transferred to 70% ethanol PBS solution for paraffin embedding.
Novel object recognition assessment: Twenty-four hours following the Y-maze assessment, the mice were subjected to Novel Object Recognition (NOR) assessment. […] The mice were allowed to explore the objects for 10 min and the total amount of time each mouse spent interacting with each object was measured. […]

B1: BDNF: recombinant brain-derived neurotrophic factor (13 kDa monomer), Peprotech (protein, UniProt P23560 19-247, looked up)
Neurotrophic factor BDNF …: APMKEANIRGQGGLAYPGVRTHGTLESVNGPKAGSRGLTSLADTFEHVIEELLDEDQKVRPNEENNKDADLYTSRVMLSSQVPLEPPLLFLLEEYKNYLDAANMSMRVRRHSDPARRGELSVCDSISEWVTAADKKTAVDMSGGTVTVLEKVPVSKGQLKQYFYETKCNPMGYTKEGCRGIDKRHWNSQCRTTQSYVRALTMDSKKRIGWRFIRIDTSCVCTLTIKRGR
Regarding B1, the “detection of BDNF bands in the brain” value in series [1] is listed as “undetected”. In the series on APP/PS1 mice, the “total time spent with either of the two objects” value is on record as “no significant difference”.
